The source of these data is publication PMC12561398, “The N-Terminal Extension of the Mycobacterium avium Rel Protein Is a Dual Regulator of the Bifunctional Enzyme and Represents a Novel Target” (Antibiotics, 2025).

One data set has as its target T1, MavRel ACT domain (Mycobacterium avium, UniProt A0ACG7XC01).
T1 construct: gene relA
Conditions: protein (dimer):valine 1:10 and 1:50; 50 mM Tris pH 8.5, 100 mM NaCl, 5% glycerol; 298 K; cleft at dimer interface.

Data set [1] relates to MavRel Y473W (full length) (Mycobacterium avium subsp. avium ATCC 25291). The experiment in a line: tryptophan fluorescence quenching. To be noted: 50 mM Tris-HCl pH 8.5, 350 mM NaCl, 1 mM DTT; excitation 295 nm, emission 355 nm; temperature not stated.
In data set [2] the test system is MavRel TGS Y473W (Mycobacterium avium subsp. avium ATCC 25291). The experiment in a line: tryptophan fluorescence quenching. To be noted: 50 mM Tris-HCl pH 8.5, 350 mM NaCl, 1 mM DTT; excitation 295 nm, emission 355 nm; temperature not stated.
The data set “SEC” deals with the molecule itself. The experiment in a line: SEC. On the technique in general: In gel filtration, larger molecules generally elute earlier.

For the molecule `CC(C)[C@H](N)C(=O)O` [valine], the chemical shift perturbation result at MavRel ACT domain was “indicates MavRel ACT:valine binding as well as a change in conformation”.
Take deacylated E. coli tRNA: the equilibrium dissociation constant (Kd) in data set [1] came out at 1670 nM; in data set [2], 650 nM.

B1: MavRel_(51–444) (domain or fragment)
chain: MTAQRSTLNPVLEPLVAMHREIYPKANVQLLQRAFEVADQRHASQLRHSGDPYITHPLAVATILAELGMDTTTLVAALLHDTVEDTGYTLAQLSEEFGEEVGHLVDGVTKLDRVVLGSAAEGETIRKMITAMARDPRVLVIKVADRLHNMRTMRFLPPEKQARKARETLEVIAPLAHRLGMASVKWELEDLSFAILHPKKYDEIVRLVAGRAPSRDTYLAKVRAEIINTLNASKIKATVEGRPKHYWSIYQKMIVKGRDFDDIHDLVGIRILCDEIRDCYAAVGVVHSLWQPMAGRFKDYIAQPRYGVYQSLHTTVVGPEGKPLEVQIRTRDMHRTAEYGIAAHWRYKEAKGRNGVPHPHAAAEIDDMAWMRQLLDWQREAADPGEFLESLRYD
notes: source: E. coli C41(DE3), purified (Ni-NTA, SEC)
On to B1, for which, in “SEC”, the “stoichiometry N” value stood at 2.

B2: MavRel_(1–444) (domain or fragment, Mycobacterium avium subsp. avium, UniProt A0ACG7XC01 1-444, looked up)
chain: MAEENSAAQALDAPAESPPNPVIETPEPPTESLKTSSSASRRVRARLARRMTAQRSTLNPVLEPLVAMHREIYPKANVQLLQRAFEVADQRHASQLRHSGDPYITHPLAVATILAELGMDTTTLVAALLHDTVEDTGYTLAQLSEEFGEEVGHLVDGVTKLDRVVLGSAAEGETIRKMITAMARDPRVLVIKVADRLHNMRTMRFLPPEKQARKARETLEVIAPLAHRLGMASVKWELEDLSFAILHPKKYDEIVRLVAGRAPSRDTYLAKVRAEIINTLNASKIKATVEGRPKHYWSIYQKMIVKGRDFDDIHDLVGIRILCDEIRDCYAAVGVVHSLWQPMAGRFKDYIAQPRYGVYQSLHTTVVGPEGKPLEVQIRTRDMHRTAEYGIAAHWRYKEAKGRNGVPHPHAAAEIDDMAWMRQLLDWQREAADPGEFLESLRYD
notes: The N-terminal His6 tag is stated for the parent relA construct in pET29b; also called MavRel NTD; N-terminal domain (NTD) of MavRel; source: E. coli C41(DE3), purified (Ni-NTA, SEC)
As for B2, the “stoichiometry N” value in the data set “SEC” was determined as 2.

What is called Kd is the equilibrium constant for the complex coming apart. High values mean weaker binding, low ones tighter binding. As a reminder, the stoichiometry N is a count of units in the complex or per binding partner.
